This is an account of results in patent US20250188184A1 (published 2025).

Assay [1] deals with T1, human PSMA (human, UniProt Q04609 44-750, limits assumed).
T1 construct: other Octet runs used human PSMA-Fc; also called huPSMA; prostate-specific membrane antigen
Nature of the assay: Octet, uTCE. Background: Biolayer interferometry detects binding as a change in optical thickness at a sensor tip.

The target in assay [2] is T2, cynomolgus monkey PSMA (cynomolgus monkey, UniProt A0A2K5VNZ0 44-750).
T2 construct: also called cyPSMA; cyno PSMA
Nature of the assay: Octet, uTCE.

For assay [3], the target named is T3, human CD3 epsilon (human, UniProt P07766 23-126, limits assumed).
T3 construct: also called huCD3e
T3 sequence (P07766 23-126 limits assumed): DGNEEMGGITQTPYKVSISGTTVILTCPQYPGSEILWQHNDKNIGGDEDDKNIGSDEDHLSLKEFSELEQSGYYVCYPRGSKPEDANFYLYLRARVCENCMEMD
Description: Octet, uTCE.

In assay [4] the target is T4, cynomolgus CD3 epsilon (cynomolgus monkey, UniProt Q95LI5 22-117, limits assumed).
T4 construct: also called cyCD3e
T4 sequence (looked up): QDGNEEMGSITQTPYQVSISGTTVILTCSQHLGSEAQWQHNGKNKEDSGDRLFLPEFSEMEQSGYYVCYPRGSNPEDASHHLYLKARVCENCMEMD
Description: Octet, uTCE.

Assay [5] addresses T1, human PSMA. Description: Biacore, uTCE.
The target in assay [6] is T2, cynomolgus monkey PSMA. Nature of the assay: Biacore, uTCE. A general note: In SPR one partner is held on a chip, and binding of the other changes the refractive index at the surface.
Assay [7] deals with T3, human CD3 epsilon. Nature of the assay: Biacore, uTCE.
In assay [8] the target is T4, cynomolgus CD3 epsilon. Description: Biacore, uTCE.
Assay [9] addresses T3, human CD3 epsilon. Description: Octet, crude lysate. As for the experimental part:
Pool 2 consisted of paTCE molecules each containing PSMA.262 and one of 64 CD3.23 mutation combination variants. Stability and affinity of the individually expressed molecules in the form of crude lysate was evaluated by Octet. […] The binding of these anti-CD3 molecules (CD3.227, CD3.228, CD3.229 and CD3.230) to human and cynomolgus CD3 was measured by Octet and the Tₘ was measured by Differential Scanning Fluorimetry. All variants were paired with PSMA.262 except for CD3.23 which was paired with PSMA.5.

T1 sequence (Q04609 44-750 limits assumed): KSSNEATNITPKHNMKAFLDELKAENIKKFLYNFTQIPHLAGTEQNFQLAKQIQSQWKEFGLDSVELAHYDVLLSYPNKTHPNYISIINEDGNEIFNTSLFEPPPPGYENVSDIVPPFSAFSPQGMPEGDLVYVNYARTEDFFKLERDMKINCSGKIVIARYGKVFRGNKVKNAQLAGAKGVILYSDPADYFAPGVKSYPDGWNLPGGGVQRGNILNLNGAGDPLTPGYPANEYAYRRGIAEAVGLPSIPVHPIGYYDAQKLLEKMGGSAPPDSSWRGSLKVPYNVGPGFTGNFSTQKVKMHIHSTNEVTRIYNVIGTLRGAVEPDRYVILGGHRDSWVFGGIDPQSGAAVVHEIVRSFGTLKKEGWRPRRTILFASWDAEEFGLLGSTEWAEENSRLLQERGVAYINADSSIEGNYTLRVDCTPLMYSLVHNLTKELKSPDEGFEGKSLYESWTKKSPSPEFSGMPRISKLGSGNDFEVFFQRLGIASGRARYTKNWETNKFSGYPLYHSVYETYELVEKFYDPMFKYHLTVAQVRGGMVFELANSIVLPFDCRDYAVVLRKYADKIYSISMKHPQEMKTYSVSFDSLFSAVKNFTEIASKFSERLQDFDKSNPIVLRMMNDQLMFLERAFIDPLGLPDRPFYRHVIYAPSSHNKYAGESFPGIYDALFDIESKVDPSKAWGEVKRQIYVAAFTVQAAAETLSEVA

B1: uTCE from AC3445 (PSMA.119-CD3.23) (bispecific antibody)
chain: GTSESATPESQVQLVESGGGVVQPGRSLRLSCAASGRTFGIYVMGWVRQAPGKEREFVAAISWSGSNRKVSDSVKGRFTISRDNSKNTLYLQMNSLRAEDTAVYYCAASNRLYGRTWYDFNESDYWGQGTQVTVSSGGGGSGGGSELVVTQEPSLTVSPGGTVTLTCRSSNGAVTSSNYANWVQQKPGQAPRGLIGGTNKRAPGTPARFSGSLLGGKAALTLSGVQPEDEAVYYCALWYPNLWVFGGGTKLTVLSESATPESGPGTSPGATPESGPGTSESATPEVQLLESGGGIVQPGGSLKLSCAASGFTFNTYAMNWVRQAPGKGLEWVARIRSKYNNYATYYADSVKDRFTISRDDSKNTVYLQMNNLKTEDTAVYYCVRHENFGNSYVSWFAHWGQGTLVTVSSGTATPESGPG
notes: release-segment residues left at the ends not specified
Take B1: the Kd was 6.2 nM in the assay with human PSMA [1], 47.5 nM with cynomolgus monkey PSMA [2], 34.8 nM with human CD3 epsilon [3] and 40 nM in the assay with cynomolgus CD3 epsilon [4].

B2: uTCE from AC3934 (PSMA.262-CD3.228) (bispecific antibody)
chain: GTSESATPESQVQLVESGGGVVQPGRSLRLSCAASGRTFGIYVWGWVRQAPGKEREFVGAISWSGSNRKVSDSVKGRFTISRDNSKNTLYLQMNSLRAEDTAVYYCAASNKLYGRTWYDFNESDYWGQGTQVTVSSGGGGSGGGSELVVTQEPSLTVSPGGTVTLTCRSSNGAVTSSNYANWVQQKPGQAPRGLIGGTNKRAPGTPARFSGSLLGGKAALTLSGVQPEDEAVYYCALWYPNLWVFGGGTKLTVLSESATPESGPGTSPGATPESGPGTSESATPEVQLVESGGGIVQPGGSLRLSCAASGFTFSTYAMNWVRQAPGKGLEWVGRIRTKRNNYATYYADSVKGRFTISRDDSKNTVYLQMNSLKTEDTAVYYCVRHENFGNSYVSWFAHWGQGTLVTVSSGTATPESGPG
notes: release-segment residues left at the ends not specified; also called AMX500-P7 uTCE
For the molecule B2, the Kd was 1.6 nM in the assay with human PSMA [1]; 13.1 nM in the assay with cynomolgus monkey PSMA [2]; 0.5 nM with human PSMA [5]; 13 nM with cynomolgus monkey PSMA [6]; 26.6 nM in the assay with human CD3 epsilon [3]; 33.7 nM in the assay with cynomolgus CD3 epsilon [4]. Also, the results for the Kd in the assay with human CD3 epsilon [7] and with cynomolgus CD3 epsilon [8] were 9.83 nM and 10.4 nM, respectively.

B3: uTCE from AC3928 (PSMA.350-CD3.23) (bispecific antibody)
chain: GTSESATPESQVQLVESGGGVVQPGRSLRLSCAASGRTFGIYVWGWFRQAPGKEREFVGAMSWSGSNRKVSDSVKGRFTISRDNSKNTLYLQMNSLRAEDTAVYYCAASNKEYGRTWYDFNESDYWGQGTQVTVSSGGGGSGGGSELVVTQEPSLTVSPGGTVTLTCRSSNGAVTSSNYANWVQQKPGQAPRGLIGGTNKRAPGTPARFSGSLLGGKAALTLSGVQPEDEAVYYCALWYPNLWVFGGGTKLTVLSESATPESGPGTSPGATPESGPGTSESATPEVQLLESGGGIVQPGGSLKLSCAASGFTFNTYAMNWVRQAPGKGLEWVARIRSKYNNYATYYADSVKDRFTISRDDSKNTVYLQMNNLKTEDTAVYYCVRHENFGNSYVSWFAHWGQGTLVTVSSGTATPESGPG
notes: release-segment residues left at the ends not specified; also called AMX500-P6 uTCE
Consider B3, for which the Kd was 13.2 nM with human PSMA [1]; 198 nM with cynomolgus monkey PSMA [2]; 19 nM with human PSMA [5]; 354 nM in the assay with cynomolgus monkey PSMA [6]; 43 nM in the assay with human CD3 epsilon [3]; 44.9 nM with cynomolgus CD3 epsilon [4]. The results for the Kd with human CD3 epsilon [7] and in the assay with cynomolgus CD3 epsilon [8] were 27.3 nM and 26.6 nM, respectively.

B4: CD3.218 (AC3649) (bispecific antibody, V domains shown)
VH: EVQLVESGGGIVQPGGSLRLSCAASGFTFSTYAMNWVRQAPGKGLEWVGRIRSKYNNYATTYADSVKGRFTISRDDSKNTVYLQMNSLKTEDTAVYYCVRHENFGNSYVSWFAHWGQGTLVTVSS
VL: ELVVTQEPSLTVSPGGTVTLTCRSSNGAVTSSNYANWVQQKPGQAPRGLIGGTNKRAPGTPARFSGSLLGGKAALTLSGVQPEDEAVYYCALWYPNLWVFGGGTKLTVL
notes: paTCE with PSMA.262 VHH; crude lysate
Consider B4, for which the Kd with human CD3 epsilon [9] came out at 4.4 nM.

B5: CD3.251 (AC3682) (bispecific antibody, V domains shown)
VH: EVQLVESGGGIVQPGGSLRLSCAASGFTFNTYAMNWVRQAPGKGLEWVGRIRSKRNNYATTYADSVKDRFTISRDDSKNTVYLQMNSLKTEDTAVYYCVRHENFGNSYVSWFAHWGQGTLVTVSS
VL: ELVVTQEPSLTVSPGGTVTLTCRSSNGAVTSSNYANWVQQKPGQAPRGLIGGTNKRAPGTPARFSGSLLGGKAALTLSGVQPEDEAVYYCALWYPNLWVFGGGTKLTVL
notes: as for B4
Take B5: the Kd in the assay with human CD3 epsilon [9] was 32.9 nM.

Broadly, the Kd is a measure of binding affinity in units of concentration.
